Experimental data as given in patent US20120148575A1 (published 2012).

Target: Control
Test: SPR

B1: muFcgRIV (receptor)
chain: GLQKAVVNLDPKWVRVLEEDSVTLRCQGTFSPEDNSIKWFHNESLIPHQDANYVIQSARVKDSGMYRCQTALSTISDPVQLEVHMGWLLLQTTKWLFQEGDPIHLRCHSWQNRPVRKVTYLQNGKGKKYFHENSELLIPKATHNDSGSYFCRGLIGHNNKSSASFRISLGDPGSPSMFPPWHQ
Q: With B1 as the binder, how does the Kd read?
A: Its Kd is 329 nM.
